# B1: Dual oxidase 2 (Homo sapiens), Q9NRD8 (parent)
# chain: MLRARPEALMLLGALLTGSLGPSGNQDALSLPWEVQRYDGWFNNLRHHERGAVGCRLQRRVPANYADGVYQALEEPQLPNPRRLSNAATRGIAGLPSLHNRTVLGVFFGYHVLSDVVSVETPGCPAEFLNIRIPPGDPVFDPDQRGDVVLPFQRSRWDPETGRSPSNPRDLANQVTGWLDGSAIYGSSHSWSDALRSFSGGQLASGPDPAFPRDSQNPLLMWAAPDPATGQNGPRGLYAFGAERGNREPFLQALGLLWFRYHNLWAQRLARQHPDWEDEELFQHARKRVIATYQNIAVYEWLPSFLQKTLPEYTGYRPFLDPSISPEFVVASEQFFSTMVPPGVYMRNASCHFRKVLNKGFQSSQALRVCNNYWIRENPNLNSTQEVNELLLGMASQISELEDNIVVEDLRDYWPGPGKFSRTDYVASSIQRGRDMGLPSYSQALLAFGLDIPRNWSDLNPNVDPQVLEATAALYNQDLSQLELLLGGLLESHGDPGPLFSAIVLDQFVRLRDGDRYWFENTRNGLFSKKEIEDIRNTTLRDVLVAVINIDPSALQPNVFVWHKGAPCPQPKQLTTDGLPQCAPLTVLDFFEGSSPGFAITIIALCCLPLVSLLLSGVVAYFRGREHKKLQKKLKESVKKEAAKDGVPAMEWPGPKERSSPIIIQLLSDRCLQVLNRHLTVLRVVQLQPLQQVNLILSNNRGCRTLLLKIPKEYDLVLLFSSEEERGAFVQQLWDFCVRWALGLHVAEMSEKELFRKAVTKQQRERILEIFFRHLFAQVLDINQADAGTLPLDSSQKVREALTCELSRAEFAESLGLKPQDMFVESMFSLADKDGNGYLSFREFLDILVVFMKGSPEDKSRLMFTMYDLDENGFLSKDEFFTMMRSFIEISNNCLSKAQLAEVVESMFRESGFQDKEELTWEDFHFMLRDHDSELRFTQLCVKGGGGGGNGIRDIFKQNISCRVSFITRTPGERSHPQGLGPPAPEAPELGGPGLKKRFGKKAAVPTPRLYTEALQEKMQRGFLAQKLQQYKRFVENYRRHIVCVAIFSAICVGVFADRAYYYGFASPPSDIAQTTLVGIILSRGTAASVSFMFSYILLTMCRNLITFLRETFLNRYVPFDAAVDFHRWIAMAAVVLAILHSAGHAVNVYIFSVSPLSLLACIFPNVFVNDGSKLPQKFYWWFFQTVPGMTGVLLLLVLAIMYVFASHHFRRRSFRGFWLTHHLYILLYALLIIHGSYALIQLPTFHIYFLVPAIIYGGDKLVSLSRKKVEISVVKAELLPSGVTYLQFQRPQGFEYKSGQWVRIACLALGTTEYHPFTLTSAPHEDTLSLHIRAVGPWTTRLREIYSSPKGNGCAGYPKLYLDGPFGEGHQEWHKFEVSVLVGGGIGVTPFASILKDLVFKSSLGSQMLCKKIYFIWVTRTQRQFEWLADIIQEVEENDHQDLVSVHIYVTQLAEKFDLRTTMLYICERHFQKVLNRSLFTGLRSITHFGRPPFEPFFNSLQEVHPQVRKIGVFSCGPPGMTKNVEKACQLVNRQDRAHFMHHYENF
# partner: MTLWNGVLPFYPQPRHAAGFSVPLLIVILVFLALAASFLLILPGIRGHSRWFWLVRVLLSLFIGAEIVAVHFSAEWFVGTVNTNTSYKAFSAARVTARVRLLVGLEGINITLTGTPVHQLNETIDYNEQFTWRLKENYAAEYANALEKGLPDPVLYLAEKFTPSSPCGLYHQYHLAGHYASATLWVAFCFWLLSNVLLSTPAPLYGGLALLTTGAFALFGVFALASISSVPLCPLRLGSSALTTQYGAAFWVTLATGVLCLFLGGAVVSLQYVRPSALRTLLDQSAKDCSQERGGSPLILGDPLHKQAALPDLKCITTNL
# B2: Dual oxidase maturation factor 2 (Homo sapiens), Q1HG44 (parent)
# chain: B1 partner
# Variants of: B1
# Settings: with doxa2_human DUOXA2, Q1HG44
row,effect of a mutation on the interaction,Variant
1,disrupting interaction strength,C124G

# Variants of: B1
# Settings: with doxa2_human DUOXA2, Q1HG44
# Remark: another data set of the same source
row,effect of a mutation on the interaction,Variant
1,disrupting interaction strength,C568G
2,decreasing interaction strength,C370G
3,disrupting interaction strength,C582G
4,with no effect,C351G

# Variants of: B1
# Settings: with doxa2_human DUOXA2, Q1HG44
# Remark: another data set of the same source
row,effect of a mutation on the interaction,Variant
1,disrupting interaction strength,C1162G

# Variants of: B2
# Settings: with duox2_human DUOX2, Q9NRD8
row,effect of a mutation on the interaction,Variant
1,disrupting interaction strength,C233G
2,disrupting interaction strength,C167G

# Source: IntAct's records for PubMed 25761904
